# Experimental data as given in patent US20140066321A1 (PANGU BIOPHARMA, published 2014).
# Experiments:
# [1] = target: the molecule itself; test: X-ray crystal structure at 2.4 Å (self-association, homodimer)
# Procedure: To set up a […], 1 μl of protein sample was mixed with 1 μl of crystallization solution with 0.2 M ammonium citrate. […] Before diffraction experiments, crystals were soaked in crystallization solution containing […] for cryoprotection. […] Specifically, crystals were soaked in crystallization solution containing 10-20% glycerol for 5-10 mins. The diffraction data were collected at the Shanghai Synchrotron Radiation Facility and were processed and scaled using HKL2000.
# The phase was improved by density modifications with RESOLVE. The initial model was built in COOT. […] The models were refined in Refmac5 and PHENIX. […] All structure figures were prepared by PyMOL
# [2] = target: the molecule itself; test: size exclusion chromatography (self-association, homodimer)
# Procedure: The cDNA encoding native human cytoplasmic HRS and the splice variant HRSΔCD were cloned into a modified pET32 vector and fused to the N-terminal thioredoxin-His₆-tags. The fusion proteins were expressed in E. coli BL21(DE3) and first purified by Ni²⁺-NTA affinity chromatography Next, the thioredoxin-His₆-tag was removed by protease-3C digestion. The cleaved protein mixtures were further separated by a size-exclusion chromatography in a buffer containing 50 mM Tris (pH 7.5), 100 mM NaCl, 1 mM EDTA and 1 mM […] Native HRS and HRSΔCD mutants were created using the standard PCR-based mutagenesis method. The mutant proteins were purified using a protocol identical to that used for native HRS and HRSΔCD. Analytical gel filtration chromatography was carried out on an AKTA FPLC system (GE Healthcare). Proteins were loaded onto a Superose 12 10/300 GL column (GE Healthcare) equilibrated with a buffer containing 50 mM Tris (pH 7.5), 100 mM NaCl, […] EDTA and 1 mM […].
Protein,binding result [1],binding result [2]
"human HRS variant with deletion of residues 1-53 and residues 507-509 (HRS Δ1-53-Δ507-509) (enzyme, the row under measurements tells of its self-association into a dimer in the crystal structure) FVLKTPKGTRDYSPRQMAVREKVFDVIIRCFKRHGAEVIDTPVFELKETLMGKYGEDSKLIYDLKDQGGELLSLRYDLTVPFARYLAMNKLTNIKRYHIAKVYRRDNPAMTRGRYREFYQCDFDIAGNFDPMIPDAECLKIMCEILSSLQIGDFLVKVNDRRILDGMFAICGVSDSKFRTICSSVDKLDKVSWEEVKNEMVGEKGLAPEVADRIGDYVQQHGGVSLVEQLLQDPKLSQNKQALEGLGDLKLLFEYLTLFGIDDKISFDLSLARGLDYYTGVIYEAVLLQTPAQAGEEPLGVGSVAAGGRYDGLVGMFDPKGRKVPCVGLSIGVERIFSIVEQRLEALEEKIRTTETQVLVASAQKKLLEERLKLVSELWDAGIKAELLYKKNPKLLNQLQYCEEAGIPLVAIIGEQELKDGVIKLRSVTSREEVDVRREDLVEEIKRRTGQPL",binds,–
"human HRS variant with deletion of residues 507-509 (HRS Δ507-509) (enzyme, the row under measurements tells of its self-association into a dimer (size exclusion chromatography)) MAERAALEELVKLQGERVRGLKQQKASAELIEEEVAKLLKLKAQLGPDESKQKFVLKTPKGTRDYSPRQMAVREKVFDVIIRCFKRHGAEVIDTPVFELKETLMGKYGEDSKLIYDLKDQGGELLSLRYDLTVPFARYLAMNKLTNIKRYHIAKVYRRDNPAMTRGRYREFYQCDFDIAGNFDPMIPDAECLKIMCEILSSLQIGDFLVKVNDRRILDGMFAICGVSDSKFRTICSSVDKLDKVSWEEVKNEMVGEKGLAPEVADRIGDYVQQHGGVSLVEQLLQDPKLSQNKQALEGLGDLKLLFEYLTLFGIDDKISFDLSLARGLDYYTGVIYEAVLLQTPAQAGEEPLGVGSVAAGGRYDGLVGMFDPKGRKVPCVGLSIGVERIFSIVEQRLEALEEKIRTTETQVLVASAQKKLLEERLKLVSELWDAGIKAELLYKKNPKLLNQLQYCEEAGIPLVAIIGEQELKDGVIKLRSVTSREEVDVRREDLVEEIKRRTGQPL",–,binds
